Measured values published in patent US20170334954A1.

Legend:
[1] = biological target: human polyclonal IgG (Gammanorm) (human); test: column 10% breakthrough capacity, ligand content 9.7 mg/ml; 0.5 M NaOH; ratio to reference Zvar4
[2] = biological target: human polyclonal IgG (Gammanorm) (human); test: column 10% breakthrough capacity, ligand content 9.7 mg/ml; 1.0 M NaOH; ratio to reference Zvar4
[3] = biological target: human polyclonal IgG (Gammanorm) (human); test: column 10% breakthrough capacity, ligand on agarose beads, ligand content 9.7 mg/ml; after 24 h in 0.5 M NaOH
[4] = biological target: human polyclonal IgG (Gammanorm) (human); test: column 10% breakthrough capacity, ligand on agarose beads, ligand content 9.7 mg/ml, 6 min residence time; before NaOH
[5] = biological target: human polyclonal IgG (Gammanorm) (human); test: as above; remark: listed apart in the source
[6] = biological target: human polyclonal IgG (Gammanorm) (human); test: column 10% breakthrough capacity, ligand on agarose beads, ligand content 9.7 mg/ml; after six 4 h cycles in 1.0 M NaOH
[7] = biological target: human polyclonal IgG (Gammanorm) (human); test: column 10% breakthrough capacity, ligand content […]; 0.5 M NaOH; ratio to reference Zvar4
[8] = biological target: human polyclonal IgG (Gammanorm) (human); test: column 10% breakthrough capacity, ligand content 7.0 mg/ml; 0.5 M NaOH; ratio to reference Zvar4
[9] = biological target: human polyclonal IgG (Gammanorm) (human); test: column 10% breakthrough capacity, ligand on agarose beads, ligand content […]; after 24 h in 0.5 M NaOH
[10] = biological target: human polyclonal IgG (Gammanorm) (human); test: column 10% breakthrough capacity, ligand on agarose beads, ligand content 7.0 mg/ml; after 24 h in 0.5 M NaOH
[11] = biological target: human polyclonal IgG (Gammanorm) (human); test: column 10% breakthrough capacity, ligand on agarose beads, ligand content […], 6 min residence time; before NaOH
[12] = biological target: human polyclonal IgG (Gammanorm) (human); test: column 10% breakthrough capacity, ligand on agarose beads, ligand content 7.0 mg/ml, 6 min residence time; before NaOH
[13] = biological target: human polyclonal IgG (Gammanorm) (human); test: column 10% breakthrough capacity, ligand content […]; 1.0 M NaOH; ratio to reference Zvar4
[14] = biological target: human polyclonal IgG (Gammanorm) (human); test: column 10% breakthrough capacity, ligand content 7.2 mg/ml; 0.5 M NaOH; ratio to reference Zvar4
[15] = biological target: human polyclonal IgG (Gammanorm) (human); test: column 10% breakthrough capacity, ligand on agarose beads, ligand content 7.2 mg/ml; after 24 h in 0.5 M NaOH
[16] = biological target: human polyclonal IgG (Gammanorm) (human); test: column 10% breakthrough capacity, ligand on agarose beads, ligand content […], 6 min residence time; before NaOH; remark: listed apart in the source
[17] = biological target: human polyclonal IgG (Gammanorm) (human); test: column 10% breakthrough capacity, ligand on agarose beads, ligand content […]; after six 4 h cycles in 1.0 M NaOH
[18] = biological target: human polyclonal IgG (Gammanorm) (human); test: column 10% breakthrough capacity, ligand on agarose beads, ligand content 7.2 mg/ml, 6 min residence time; before NaOH
[19] = biological target: human polyclonal IgG (Gammanorm) (human); test: column 10% breakthrough capacity, ligand content 10.8 mg/ml; 0.5 M NaOH; ratio to reference Zvar4
[20] = biological target: human polyclonal IgG (Gammanorm) (human); test: column 10% breakthrough capacity, ligand on agarose beads, ligand content 10.8 mg/ml; after 24 h in 0.5 M NaOH
[21] = biological target: human polyclonal IgG (Gammanorm) (human); test: column 10% breakthrough capacity, ligand on agarose beads, ligand content 10.8 mg/ml, 6 min residence time; before NaOH

“Zvar(N11K, H18K, S33K, D37E, A42R, N43A, L44I, K50R, L51Y)4 with an additional N-terminal cysteine (agarose bead ligand) (designed binder)” showed a Capacity retention relative to ref. after six 4 h cycles [1] of 1.53, a Capacity retention relative to ref. after six 4 h cycles [2] of 1.44 and a Remaining IgG capacity Qb10 after six 4 h cycles [3] of 52 mg/mL. For the same substance, the Remaining IgG capacity after six 4 h cycles (%) [3] was 92%, the Initial IgG capacity Qb10 [4] was 56.3 mg/mL and the Initial IgG capacity Qb10 [5] was 62.1 mg/mL. It also gave a Remaining IgG capacity Qb10 after six 4 h cycles [6] of 48.1 mg/mL and a Remaining IgG capacity after six 4 h cycles (%) [6] of 77%.
Substance “Zvar(Q9A, N11E, N28A, N43A)4 with an additional N-terminal cysteine (agarose bead ligand) (designed binder)” has a Capacity retention relative to ref. after six 4 h cycles [7] of 1.31, a Capacity retention relative to ref. after six 4 h cycles [8] of 1.5 and a Remaining IgG capacity Qb10 after six 4 h cycles [9] of 46.2 mg/mL. The Remaining IgG capacity after six 4 h cycles (%) [9] was 93%, the Remaining IgG capacity Qb10 after six 4 h cycles [10] was 44.1 mg/mL and the Remaining IgG capacity after six 4 h cycles (%) [10] was 90%. It also gave an Initial IgG capacity Qb10 [11] of 50 mg/mL and an Initial IgG capacity Qb10 [12] of 49.1 mg/mL.
“Zvar(Q9A, N11E, Q40V, A42K, N43A, L44I)4 with an additional N-terminal cysteine (agarose bead ligand) (designed binder)” gave a Capacity retention relative to ref. after six 4 h cycles [7] of 1.34, a Capacity retention relative to ref. after six 4 h cycles [13] of 1.67 and a Capacity retention relative to ref. after six 4 h cycles [14] of 1.5. For the same substance, the Remaining IgG capacity Qb10 after six 4 h cycles [9] was 53.6 mg/mL, the Remaining IgG capacity after six 4 h cycles (%) [9] was 95% and the Remaining IgG capacity Qb10 after six 4 h cycles [15] was 44.2 mg/mL. It also gave a Remaining IgG capacity after six 4 h cycles (%) [15] of 90%, an Initial IgG capacity Qb10 [11] of 56.3 mg/mL and an Initial IgG capacity Qb10 [16] of 60.3 mg/mL. It also gave a Remaining IgG capacity Qb10 after six 4 h cycles [17] of 56 mg/mL, a Remaining IgG capacity after six 4 h cycles (%) [17] of 93% and an Initial IgG capacity Qb10 [18] of 49 mg/mL.
For “Zvar(Q9A, N11K, H18K, D37E, A42R)4 with an additional N-terminal cysteine (agarose bead ligand) (designed binder)”, the Capacity retention relative to ref. after six 4 h cycles [19] was 1.3, the Remaining IgG capacity Qb10 after six 4 h cycles [20] was 52.5 mg/mL and the Remaining IgG capacity after six 4 h cycles (%) [20] was 92%. It also gave an Initial IgG capacity Qb10 [21] of 56.9 mg/mL.
